{
  "source": "paper PMC11293113",
  "about": "“Comparing regional brain uptake of incretin receptor agonists after intranasal delivery in CD-1 mice and the APP/PS1 mouse model of Alzheimer’s disease” (Alzheimer's Research & Therapy, 2024)",
  "key": {"[1]": {"conditions": "mouse, in vivo", "text": "Initial distribution studies used male and female CD-1 mice (8–10 weeks old) purchased from Charles River Laboratories (Seattle, WA). Follow-up studies performed in male and female hemizygous APP/PS1 mice and WT littermates on a C57BL/6J background (Cat 034832-JAX) were purchased from the Mutant Mouse Resource & Research Centers (MMRRC-NIH) at approximately 2 months of age.\nIRA administration followed the IN protocol outlined in Rhea et al.. Mice were anesthetized with 40% urethane intraperitoneally. […] Delicate delivery with negligible force was necessary to prevent injuring the turbinates or penetrating the cribriform plate. Tips were also examined for the presence of blood to ensure no cribriform plate rupture took place. Mice remained in the supine state for a duration of at least 30 s before being placed onto the left side.\nCollection of blood occurred from the right carotid artery, and the whole brain and olfactory bulbs (Olf) were removed at 5, 15, 30, and 60 min time points after IN administration. […] Radioactivity levels were calculated for the whole brain by combining the radioactivity of each brain region and dividing by the total weights. The same was done for the neocortex (Crtx) by combining radioactivity and weights for the FC, PC, and OC. […] A 50 µl aliquot of the serum was then collected for measurement of radioactivity. Radioactivity amounts for each individual brain region, olfactory bulb, and serum were measured in a Wizard2 Automatic Gamma Counter (PerkinElmer, Waltham, MA) for 30 min. ^14C-DA5-CH samples were solubilized with Solvable (Sigma), transferred to scintillation vials containing Ecoscint (National Diagnostics) and ^14C was measured in a beta counter (TriCarb 3110TR, Perkin-Elmer). Radioactivity for ^125I was measured by counts per minute (cpm) while ^14C was measured by disintegrations per minute (dpm). […]\nInjected dose percentages per ml of serum (%Inj/ml) were calculated by: […]\nwhere Inj is dose of cpm administered and cpm/ml is the amount of radioactivity in one ml of serum. […]"}, "[2]": {"conditions": "mouse, in vivo, cited from earlier work", "text": "Using ^125I labelled IRAs, we tested the ability of intravenously administered IRAs to cross the blood-brain barrier (BBB) in mice. […] The BBB is a functional interface between blood and brain that allows for regulated entry of circulating substrates."}, "[3]": {"test": "Stability of IRA following IN delivery (TCA acid precipitation of brain, olfactory bulb, serum) in CD-1 mice", "conditions": "mouse, in vivo", "experimental": "Blood was centrifuged at 3200 xg for 10 min. Serum (50 µl) was combined with 250 µl of BSA/LR, then combined with 300 µl of 30% TCA. Tissues were homogenized in 0.6 ml of 1% BSA/LR solution using a bead beater for 30 s at 4800 rpm twice on ice. […] Equal parts supernatant (300 µl) was mixed with an equal volume of 30% TCA. Serum and brain acid precipitated samples were centrifuged at 5400 xg for 10 min. The supernatant (S) was transferred to a new tube, leaving behind the pellet (P). The final S and P fractions for serum, olfactory bulb, and whole brain were counted separately, and the percentage of radioactivity was calculated using.\n%Precip = 100 x (P)/(S + P) as described.\nAll biological samples were corrected for processing degradation by dividing their values by this processing control (PCon) value and multiplying by 100."}, "[4]": {"conditions": "in vivo; cited from earlier work", "experimental": "IRAs are forms of these hormones modified to prolong their otherwise very short half-lives in plasma (less than 2 min)."}},
  "data": [
    {"molecule": "dulaglutide (BAF): dulaglutide bioactive fragment, single IRA, 3315 Da, purchased from GLPBIO (catalog # GC31520); 125I-labelled", "values": [
      {"measurement": "Serum level following IN delivery", "setting": "[1]", "result": "highest levels"},
      {"measurement": "Sex difference in maximum uptake in hypothalamus", "setting": "[1]", "result": "females having less uptake"},
      {"measurement": "Rate of crossing the BBB after IV administration", "setting": "[2]", "result": "quickly"},
      {"measurement": "Rate of whole brain uptake an hour after IV administration", "setting": "[2]", "result": "relatively high"}
    ]},
    {"molecule": "CC[C@H](C)[C@H](NC(=O)[C@H](Cc1ccccc1)NC(=O)[C@H](CCC(=O)O)NC(=O)[C@H](CCCCNC(=O)COCCOCCNC(=O)COCCOCCNC(=O)CC[C@H](NC(=O)CCCCCCCCCCCCCCCCC(=O)O)C(=O)O)NC(=O)[C@H](C)NC(=O)[C@H](C)NC(=O)[C@H](CCC(N)=O)NC(=O)CNC(=O)[C@H](CCC(=O)O)NC(=O)[C@H](CC(C)C)NC(=O)[C@H](Cc1ccc(O)cc1)NC(=O)[C@H](CO)NC(=O)[C@H](CO)NC(=O)[C@@H](NC(=O)[C@H](CC(=O)O)NC(=O)[C@H](CO)NC(=O)[C@@H](NC(=O)[C@H](Cc1ccccc1)NC(=O)[C@@H](NC(=O)CNC(=O)[C@H](CCC(=O)O)NC(=O)C(C)(C)NC(=O)[C@@H](N)Cc1cnc[nH]1)[C@@H](C)O)[C@@H](C)O)C(C)C)C(=O)N[C@@H](C)C(=O)N[C@@H](Cc1c[nH]c2ccccc12)C(=O)N[C@@H](CC(C)C)C(=O)N[C@H](C(=O)N[C@@H](CCCNC(=N)N)C(=O)NCC(=O)N[C@@H](CCCNC(=N)N)C(=O)NCC(=O)O)C(C)C", "note": "[Semaglutide]", "values": [
      {"measurement": "Whole brain maximal uptake relative to the other IRAs", "setting": "[1]", "result": "three-fold less uptake"},
      {"measurement": "Acid precipitation (AP%) olfactory bulb", "setting": "[3]", "result": "100.9 ± 0.5", "unit": "%"},
      {"measurement": "Acid precipitation (AP%) serum", "setting": "[3]", "result": "86.9 ± 1.1", "unit": "%"},
      {"measurement": "Acid precipitation (AP%) whole brain", "setting": "[3]", "result": "74.7 ± 17.7", "unit": "%"},
      {"measurement": "Rate of crossing the BBB after IV administration", "setting": "[2]", "result": "undetectable within an hour"},
      {"measurement": "Rate of whole brain uptake an hour after IV administration", "setting": "[2]", "result": "undetectable"},
      {"measurement": "Time for brain detection after systemic administration", "setting": "[2]", "result": "took hours for brain detection"}
    ]},
    {"molecule": "tirzepatide: incretin receptor agonist, cited IV BBB data", "values": [
      {"measurement": "Rate of crossing the BBB after IV administration", "setting": "[2]", "result": "undetectable within an hour"}
    ]},
    {"molecule": "albiglutide: incretin receptor agonist, cited IV BBB data", "values": [
      {"measurement": "Rate of crossing the BBB after IV administration", "setting": "[2]", "result": "quickly"}
    ]},
    {"molecule": "glucagon-like peptide-1 [GLP-1]", "values": [
      {"measurement": "Half-life in plasma", "setting": "[4]", "result": "less than 2 min"}
    ]},
    {"molecule": "lixisenatide: incretin receptor agonist, cited IV BBB data", "values": [
      {"measurement": "Rate of crossing the BBB after IV administration", "setting": "[2]", "result": "slow rates"}
    ]},
    {"molecule": "liraglutide: incretin receptor agonist, cited BBB data", "values": [
      {"measurement": "Time for brain detection after systemic administration", "setting": "[2]", "result": "took hours for brain detection"}
    ]}
  ]
}
